Data from US8158585B2, “Cross-β structure comprising amyloid-binding proteins and methods for detection of the cross-β structure, for modulating cross-β structures fiber formation and modulating cross-β structure-mediated toxicity” (CrossBeta Biosciences B.V., priority 2002, dated 2012).

How the values were obtained:
[1] = tested on: ΔmIAPP, albumin-control and Hb-control; assay: ELISA: binding of human FXII to negative controls
Experimental: (§1) The binding of human FXII (Calbiochem, La Jolla, Calif., USA, catalogue #233490) to amyloid (poly)peptides was tested. Prototype amyloid peptides human amyloid-β (1-40) (hAβ (1-40)) and human fibrin fragment α147-159 FP13, and glucose-6-phosphate glycated bovine albumin (albumin-advanced glycation end product (AGE)) and glucose-6-phosphate glycated human hemoglobin (Hb-AGE), all containing cross-β structure, as well as negative controls mouse A islet amyloid polypeptide (ΔmIAPP), albumin-control and Hb-control, all three lacking the amyloid-specific structure, were coated to ELISA plates and overlayed with a concentration series of human factor XII. Binding of FXII was detected using a rabbit polyclonal anti-FXII antibody (Calbiochem, La Jolla, Calif., USA, catalogue #233504) and peroxidase-labeled swine anti-rabbit IgG. Wells were coated in triplicate. The FXII binding buffer included 10 mM HEPES pH 7.3, 137 mM NaCl, 11 mM D-glucose, 4 mM KCl, 1 mg ml^−1 albumin, 50 μM ZnCl2, 0.02% (m/v) NaN3 and 10 mM ε-amino caproic acid (εACA). Lysine analogue εACA was added to avoid putative binding of FXII to cross-β structure via the FXII kringle domain. In addition, binding of FXII to hAβ (1-40) and the prototype amyloid human amylin fragment hΔIAPP was tested using dot blot analysis. […]

[2] = molecular target: T1, hAβ (1-40) (Homo sapiens, UniProt P05067); assay: Dot blot: binding of FXII to hAβ (1-40); conditions: 2 nM FXII
T1 construct: Peptide Aβ (1-40), containing amino acids as present in the described human Alzheimer peptide; purchased Pepscan, Inc. or peptide synthesis facility of the Netherlands Cancer Institute; host or cells: chemical synthesis
Experimental: as §1

[3] = molecular target: T2, human amylin fragment hΔIAPP (Homo sapiens, UniProt P10997); assay: Dot blot: binding of FXII to hΔIAPP; conditions: 2 nM FXII
T2 construct: purchased Pepscan, Inc. or peptide synthesis facility of the Netherlands Cancer Institute; host or cells: chemical synthesis
Experimental: as §1

[4] = molecular target: T3, mΔIAPP (Mus musculus, UniProt P12968); assay: Dot blot: binding of FXII to mΔIAPP; conditions: 2 nM FXII
T3 construct: purchased Pepscan, Inc. or peptide synthesis facility of the Netherlands Cancer Institute; host or cells: chemical synthesis
Experimental: as §1

[5] = molecular target: T4, tPA-mediated plasminogen activation (Homo sapiens, UniProt P00750); assay: Plasminogen activation assay; assay type: biochemical; conditions: plasminogen 200 μg ml−1, tPA 200 pM, 5 μM co-factor; S-2251
T4 construct: purchased Boehringer-Ingelheim (Germany)
Experimental: Plasminogen (200 μg ml^−1) was incubated with tPA (200 pM) in the presence or the absence of a co-factor (5 μM of either endostatin, Aβ (1-40), or one the fibrin-derived peptides 85, 86 and 87). At the indicated time intervals, samples were taken and the reaction was stopped in a buffer containing 5 mM EDTA and 150 mM εACA. After collection of the samples, a chromogenic plasmin substrate S-2251 was added and plasmin activity was determined kinetically in a spectrophotometer at 37° C.

[6] = tested on: neuronal cell death; assay: Endostatin-induced cell death by methylene blue staining; assay type: cell-based; conditions: precipitated form
Excerpt: FIG. 6 is a set of graphs illustrating that endostatin can form fibers comprising cross-β structure and stimulates plasminogen activation. […] Aβ is shown for comparison. Panel D is an analysis of endostatin-induced cell death by methylene blue staining. […] Direct cell death, but not cell detachment, is protected in the presence of sufficient glucose. Buffer prec. indicates control buffer.

[7] = molecular target: T5, Aβ (Homo sapiens, UniProt P05067); assay: Solid-phase binding ELISA of tPA, plasminogen and plasmin to coated Aβ; conditions: 50 mM ε-aminocaproic acid
T5 construct: Peptide Aβ (1-40), containing amino acids as present in the described human Alzheimer peptide; purchased Pepscan, Inc. or peptide synthesis facility of the Netherlands Cancer Institute; host or cells: chemical synthesis
Experimental: FIG. 3 is a set of graphs depicting binding of tPA, plasminogen and plasmin to Aβ. Aβ was coated onto plastic 96-well plates. Increasing concentrations of either (A) tPA or (B) plasmin(ogen) were allowed to bind to the immobilized peptide. After extensive washing, tPA and plasmin(ogen) binding was assessed by enzyme-linked immunosorbent assays using anti-tPA and anti-plasminogen antibodies. Binding of (C) tPA and (D) plasmin to Aβ in the presence of 50 mM ε-aminocaproic acid (ε-ACA) was assessed as in A and B.
To test whether tPA, plasminogen and plasmin bind Aβ, solid-phase binding assays were performed. Aβ was coated onto plastic 96-well plates and binding of the peptide to either plasmin(ogen) or to tPA was assessed by overlaying the coated peptide with increasing concentrations of either tPA, plasminogen or plasmin. Binding was assessed using specific antibodies to either plasmin(ogen) or to tPA by performing ELISA. […] However, activated plasminogen (plasmin) does bind to Aβ and does so with a kD of 47 nM. […] To test this, use was made of the lysine analogue ε-aminocaproic acid (εACA) and binding of plasmin and tPA to Aβ was tested in its presence. […] In contrast, εACA has no effect on the tPA-Aβ interaction (FIG. 3, Panel C). Thus, it was concluded that plasmin binds to free lysines that were generated during the incubation period, presumably via its lysine-binding Kringle domain(s). In line with this, the kD of plasminogen Kringle domain binding to free lysines in fibrin is similar to the kD for plasmin binding to Aβ.

[8] = molecular target: T6, albumin-g6p (Bos taurus, UniProt P02769); assay: Competitive binding of Thioflavin T and tPA to albumin-g6p (fluorescence, absorbance); set-up: species or system bovine; conditions: increasing amounts of tPA
T6 construct: Bovine serum albumin (BSA) fraction V pH 7.0; host or cells: bovine serum, fraction V
Experimental: A solution of 430 nM albumin-g6p and 19 μM of Thioflavin T was incubated with increasing amounts of tPA, for one hour at room temperature. For blank readings, albumin-g6p was omitted. Samples were prepared in four-fold in 50 mM glycine-NaOH pH 9. Emission measurements were performed as described above.
Albumin-g6p (500 nM) and Thioflavin T (10 μM) were incubated with increasing amounts of tPA, in 50 mM glycine-NaOH pH 9, for one hour at room temperature. Absorbance measurements were performed at the albumin-g6p Thioflavin T absorbance maximum at 420 nm. Samples were prepared in four-fold. For blank readings, albumin-g6p was omitted in the solutions. Absorbance was read in a quartz cuvette on a Pharmacia Biotech Ultrospec 3000 UV/visible spectrophotometer (Cambridge, England).

[9] = molecular target: T7, FXII binding to hAβ (1-40) (Homo sapiens, UniProt P05067); assay: Competitive FXII - tPA ELISA on coated hAβ (1-40); conditions: 2.5 nM FXII; concentration series up to 135 times the kD
T7 construct: Peptide Aβ (1-40), containing amino acids as present in the described human Alzheimer peptide; purchased Calbiochem (FXII); Pepscan or Netherlands Cancer Institute (peptide) 233490 (FXII)

[10] = molecular target: T8, FXII binding to albumin-AGE (Bos taurus, UniProt P02769); assay: Competitive FXII - tPA ELISA on coated albumin-AGE; conditions: 15 nM FXII; concentration series up to 150 times the kD
T8 construct: bovine serum albumin (fraction V, catalogue #A-7906); purchased Calbiochem (FXII); ICN or Sigma-Aldrich (albumin) 233490 (FXII); A-7906 (Sigma albumin)

[11] = molecular target: T3, mΔIAPP; assay: Amyloid ELISA with tPA F-EGF-GST: non-amyloid control; assay type: binding
Experimental: In order to define the affinity of the purified tPA F-EGF-GST recombinant protein, ELISAs were performed with immobilized amyloid (poly)peptides and non-amyloid control ΔmIAPP. Twenty-five μg ml^−1 of Aβ, FP13, IAPP or ΔmIAPP was immobilized on Exiqon peptide immobilizer plates. A concentration series of tPA F-EGF-GST in the presence of excess εACA was added to the wells and binding was assayed using anti-GST antibody Z-5. As a control, GST (Sigma-Aldrich, St. Louis, Mo., USA, catalogue #G-5663) was used at the same concentrations.

[12] = molecular target: T6, albumin-g6p; assay: ELISA: binding of tPA-F-GST and RPTPμ-GST to glycated albumin; set-up: species or system bovine; conditions: in the presence of excess εACA
Experimental: (§2) Binding of tPA-F-GST and RPTPμ-GST to fibrous amyloids human Aβ (1-40) and albumin-[…] was assayed with an ELISA. In brief, human Aβ (1-40), albumin-[…], or buffer only, were coated on a peptide I Immobilizer or a protein I Immobilizer, respectively. Wells were incubated with the purified GST-tagged constructs or control medium and binding was detected using primary anti-GST monoclonal antibody 2F3 and RAMPO. The wells were also incubated with […] of tPA in the presence of 10 mM of εACA. Binding of tPA is independent of the lysyl binding site located at the kringle 2 domain. Binding of tPA was measured using primary antibody 374B and RAMPO. Experiments were performed in triplicate and blank readings of non-coated wells were substracted.

[13] = tested on: anti-AGE1 binding to amyloid peptides (Aβ (1-40), IAPP); assay: Competitive ELISA: tPA and anti-AGE1 on immobilized Aβ (1-40) and IAPP; conditions: 250 or 18 nM α-AGE1; 10 mM εACA
Experimental: (§3) For ELISAs, amyloid compounds were immobilized on Exiqon peptide or protein Immobilizers (Vedbaek, Denmark), as described before. Anti-AGE antibodies and commercially available anti-Aβ (1-42) H-43 (Santa Cruz Biotechnology, Santa Cruz, Calif., USA) were diluted in PBS with 0.1% v/v Tween 20. Rabbit anti-human vitronectin K9234 was a kind gift of Dr. H. de Boer (UMC Utrecht) and was used as a negative control. For ELISAs with mouse polyclonal anti-albumin-AGE/Aβ, control serum with antibody elicited against an unrelated protein was used. Binding of mouse polyclonal anti-albumin-AGE/Aβ was performed using a dilution series of serum in PBS/0.1% Tween 20. For competitive binding assays with IAPP, anti-AGE1 was pre-incubated with varying IAPP concentrations. The IAPP fibers were spun down and the supernatant was applied in triplicate to wells of an ELISA plate coated with Aβ. Competitive binding assays with multiligand cross-β structure binding serine protease tPA were performed in a slightly different way. Coated Aβ and IAPP are overlayed with an anti-AGE1 or anti-Aβ (1-42) H-43 concentration related to the kD, together with a concentration series of tPA. A 10^7-10^4 times molar excess of lysine analogue εACA (10 mM) was present in the binding buffer in order to avoid binding of tPA to lysine residues of Aβ and IAPP, which would be independent of the presence of amyloid structures.

[14] = molecular target: T9, H-43 binding to immobilized IAPP (Homo sapiens, UniProt P10997); assay: Competitive ELISA: tPA and H-43 on immobilized IAPP; conditions: 100 nM H-43, concentration series of tPA
T9 construct: purchased Pepscan, Inc. (The Netherlands) or peptide synthesis facility at the Netherlands Cancer Institute; host or cells: synthetic peptide
T9 sequence (P10997 34-70 limits assumed): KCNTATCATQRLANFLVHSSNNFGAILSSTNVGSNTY
Experimental: as §3

[15] = molecular target: Aβ (1-40) (Homo sapiens, UniProt P05067); assay: ELISA: binding of tPA-F-GST and RPTPμ-GST to human Aβ (1-40); set-up: Peptide Aβ (1-40), containing amino acids as present in the described human Alzheimer peptide; purchased Pepscan, Inc. (The Netherlands) or peptide synthesis facility at the Netherlands Cancer Institute; host or cells: synthetic peptide; conditions: in the presence of excess εACA
Experimental: as §2

T6 sequence (P02769 25-607): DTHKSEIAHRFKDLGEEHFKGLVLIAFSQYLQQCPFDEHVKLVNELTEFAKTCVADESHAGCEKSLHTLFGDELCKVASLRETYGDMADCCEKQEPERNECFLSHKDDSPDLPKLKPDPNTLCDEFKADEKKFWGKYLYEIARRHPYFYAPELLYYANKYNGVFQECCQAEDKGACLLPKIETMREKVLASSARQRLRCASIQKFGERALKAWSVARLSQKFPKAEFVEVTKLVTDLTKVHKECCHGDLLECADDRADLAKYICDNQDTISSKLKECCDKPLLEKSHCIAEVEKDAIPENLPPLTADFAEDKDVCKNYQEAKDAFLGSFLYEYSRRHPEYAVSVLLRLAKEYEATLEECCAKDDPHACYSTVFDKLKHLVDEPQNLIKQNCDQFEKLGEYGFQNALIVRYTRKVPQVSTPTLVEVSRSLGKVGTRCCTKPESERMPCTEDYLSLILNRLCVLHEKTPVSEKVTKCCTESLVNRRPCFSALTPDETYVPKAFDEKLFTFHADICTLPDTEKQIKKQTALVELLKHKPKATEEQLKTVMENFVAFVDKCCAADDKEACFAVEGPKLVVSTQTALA
T4 sequence (P00750 36-562): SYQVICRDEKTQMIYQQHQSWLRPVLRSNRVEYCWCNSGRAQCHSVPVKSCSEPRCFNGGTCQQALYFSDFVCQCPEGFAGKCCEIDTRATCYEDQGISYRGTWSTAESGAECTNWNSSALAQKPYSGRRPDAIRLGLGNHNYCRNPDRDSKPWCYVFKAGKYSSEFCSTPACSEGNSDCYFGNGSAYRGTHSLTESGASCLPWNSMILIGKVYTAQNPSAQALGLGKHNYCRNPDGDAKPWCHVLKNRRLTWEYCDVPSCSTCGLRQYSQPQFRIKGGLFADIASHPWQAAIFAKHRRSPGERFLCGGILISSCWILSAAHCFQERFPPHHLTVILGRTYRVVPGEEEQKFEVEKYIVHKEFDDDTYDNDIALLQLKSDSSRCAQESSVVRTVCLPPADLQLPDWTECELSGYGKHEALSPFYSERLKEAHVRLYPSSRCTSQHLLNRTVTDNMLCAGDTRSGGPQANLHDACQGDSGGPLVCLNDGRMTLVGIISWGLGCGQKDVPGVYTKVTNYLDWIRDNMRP
T8 sequence (P02769 25-607): as the sequence (P02769 25-607) above
Sequence of Aβ (1-40) (P05067 672-711): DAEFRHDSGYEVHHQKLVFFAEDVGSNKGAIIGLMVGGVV
T5 sequence (P05067 672-711): as above
T1 sequence (P05067 672-711): as above
T7 sequence (P05067 672-711): as above

“FXII: human FXII (Calbiochem, catalogue #233490)” was tested, and the “binding to negative controls ΔmIAPP, albumin-control and Hb-control” value [1] was “does not bind”, the “binding to spotted hAβ (1-40)” value [2] was “specifically bound” and the “binding to spotted hΔIAPP” value [3] was “specifically bound”. For the same substance, the “binding to spotted mΔIAPP” value [4] was “No binding”.
In the case of endostatin, the “stimulation of tPA-mediated plasmin formation” value [5] is reported as “stimulating activity” and the “induction of cell death” value [6] is reported as “capable of efficiently inducing cell death”.
In the case of “tPA: Alteplase (recombinant tissue-type plasminogen activator, tPA) from Boehringer-Ingelheim”, the “binding to Aβ in the presence of εACA” value [7] is reported as “no effect”, the “competition with binding of Thioflavin T to glycated albumin” value [8] is reported as “competed” and the “inhibition of FXII binding to hAβ (1-40)” value [9] is reported as “efficiently inhibits”. The “inhibition of FXII binding to albumin-AGE” value [10] was “effectively abolished”, the “binding to non-amyloid mΔIAPP” value [11] was “No binding” and the “binding of control tPA to albumin-g6p” value [12] was “bound”. The “inhibition of anti-AGE1 binding to amyloid peptides” value [13] was “inhibited”, the “inhibition of H-43 binding to immobilized IAPP” value [14] was “effectively diminished” and the “binding of control tPA to human Aβ (1-40)” value [15] was “bound”.
